# Measured values: patent publication US20200085917A1
# Assays:
# Assay in all cases: GST pull-down, LC-MS/MS
# [1] = target: T1, Atp5f1_IPI:IPI00341282.2 (mouse) (UniProt Q9CQQ7)
# T1 sequence (looked up): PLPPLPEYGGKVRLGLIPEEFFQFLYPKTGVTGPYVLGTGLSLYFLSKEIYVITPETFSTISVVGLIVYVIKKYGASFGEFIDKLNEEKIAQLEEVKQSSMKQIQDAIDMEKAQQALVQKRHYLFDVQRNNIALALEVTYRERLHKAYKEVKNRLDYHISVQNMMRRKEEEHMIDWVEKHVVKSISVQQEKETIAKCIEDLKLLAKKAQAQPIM
# [2] = target: T2, Cplx2_IPI:IPI00111501.1 (mouse) (UniProt P84086)
# T2 sequence (looked up): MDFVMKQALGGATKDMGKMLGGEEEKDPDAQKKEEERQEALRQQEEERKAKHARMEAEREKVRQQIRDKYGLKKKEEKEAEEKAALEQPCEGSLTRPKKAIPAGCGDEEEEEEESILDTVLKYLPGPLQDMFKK
# [3] = target: T3, Gbas_IPI:IPI00115827.1 (mouse) (UniProt O55126)
# T3 sequence (looked up): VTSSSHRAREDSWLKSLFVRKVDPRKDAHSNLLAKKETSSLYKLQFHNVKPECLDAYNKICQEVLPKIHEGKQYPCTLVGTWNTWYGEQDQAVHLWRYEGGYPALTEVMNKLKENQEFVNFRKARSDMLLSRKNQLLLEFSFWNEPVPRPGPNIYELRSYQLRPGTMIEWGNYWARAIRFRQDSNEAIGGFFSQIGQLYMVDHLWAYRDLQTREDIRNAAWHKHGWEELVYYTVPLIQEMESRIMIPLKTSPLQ
# [4] = target: Hspa9_IPI:IPI00880839.1 (mouse) (UniProt P38647)
# [5] = target: IPI:IPI00123176.1_IPI:IPI00123176.1 (mouse)
# [6] = target: T4, Nipsnap1_IPI:IPI00115824.1 (mouse) (UniProt O55125)
# T4 sequence (looked up): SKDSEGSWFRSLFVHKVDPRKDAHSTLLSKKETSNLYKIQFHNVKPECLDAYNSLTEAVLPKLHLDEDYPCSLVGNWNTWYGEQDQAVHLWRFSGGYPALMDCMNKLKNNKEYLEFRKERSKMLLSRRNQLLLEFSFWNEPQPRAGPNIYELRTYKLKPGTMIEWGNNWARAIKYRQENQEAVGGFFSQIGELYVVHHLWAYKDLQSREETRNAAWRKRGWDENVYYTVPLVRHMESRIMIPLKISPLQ
# [7] = target: T5, Sfxn5_IPI:IPI00221602.1 (mouse) (UniProt Q925N0)
# T5 sequence (looked up): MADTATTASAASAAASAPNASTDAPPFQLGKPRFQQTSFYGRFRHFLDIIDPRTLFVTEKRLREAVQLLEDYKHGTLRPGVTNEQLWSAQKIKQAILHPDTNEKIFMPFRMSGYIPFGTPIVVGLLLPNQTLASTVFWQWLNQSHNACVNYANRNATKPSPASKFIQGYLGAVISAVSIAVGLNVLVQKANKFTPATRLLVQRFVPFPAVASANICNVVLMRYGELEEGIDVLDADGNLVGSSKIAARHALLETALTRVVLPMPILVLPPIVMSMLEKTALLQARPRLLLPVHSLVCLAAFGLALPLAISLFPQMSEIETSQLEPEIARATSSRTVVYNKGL
# [8] = target: Slc1a2_IPI:IPI00230289.1 (mouse) (UniProt P43006)
# [9] = target: Tomm20_IPI:IPI00120715.1 (mouse) (UniProt Q9DCC8)
# [10] = target: Vsnl1_IPI:IPI00230418.5 (mouse) (UniProt P62761)
# [11] = target: Actg1_IPI:IPI00136929.1 (mouse) (UniProt P63260)
# [12] = target: Asrgl1_IPI:IPI00223875.1 (mouse) (UniProt Q8C0M9)
# [13] = target: Coq5_IPI:IPI00379695.2 (mouse) (UniProt Q9CXI0)
# [14] = target: Echs1_IPI:IPI00454049.4 (mouse) (UniProt Q8BH95)
# [15] = target: Gnao1_IPI:IPI00115546.4 (mouse) (UniProt P18872)
# [16] = target: Gnb3_IPI:IPI00116938.1 (mouse) (UniProt Q61011)
# [17] = target: Hmgcl_IPI:IPI00379694.4 (mouse) (UniProt P38060)
# [18] = target: Iscu_IPI:IPI00110578.1 (mouse) (UniProt Q9D7P6)
# [19] = target: Sccpdh_IPI:IPI00153266.1 (mouse) (UniProt Q8R127)
# [20] = target: Tim17a (endogenous, mouse forebrain mitochondria) (mouse) (UniProt Q9Z0V8)
# [21] = target: Uqcrb_IPI:IPI00132347.1 (mouse) (UniProt Q9D855)
# Chain of Uqcrb_IPI:IPI00132347.1 (mouse) (Q9D855 2-111 limits assumed): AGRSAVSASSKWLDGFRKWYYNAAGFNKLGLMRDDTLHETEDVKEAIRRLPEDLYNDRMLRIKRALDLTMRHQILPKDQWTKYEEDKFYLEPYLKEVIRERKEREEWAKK
# Chain of Hspa9_IPI:IPI00880839.1 (mouse) (P38647 47-679 limits assumed): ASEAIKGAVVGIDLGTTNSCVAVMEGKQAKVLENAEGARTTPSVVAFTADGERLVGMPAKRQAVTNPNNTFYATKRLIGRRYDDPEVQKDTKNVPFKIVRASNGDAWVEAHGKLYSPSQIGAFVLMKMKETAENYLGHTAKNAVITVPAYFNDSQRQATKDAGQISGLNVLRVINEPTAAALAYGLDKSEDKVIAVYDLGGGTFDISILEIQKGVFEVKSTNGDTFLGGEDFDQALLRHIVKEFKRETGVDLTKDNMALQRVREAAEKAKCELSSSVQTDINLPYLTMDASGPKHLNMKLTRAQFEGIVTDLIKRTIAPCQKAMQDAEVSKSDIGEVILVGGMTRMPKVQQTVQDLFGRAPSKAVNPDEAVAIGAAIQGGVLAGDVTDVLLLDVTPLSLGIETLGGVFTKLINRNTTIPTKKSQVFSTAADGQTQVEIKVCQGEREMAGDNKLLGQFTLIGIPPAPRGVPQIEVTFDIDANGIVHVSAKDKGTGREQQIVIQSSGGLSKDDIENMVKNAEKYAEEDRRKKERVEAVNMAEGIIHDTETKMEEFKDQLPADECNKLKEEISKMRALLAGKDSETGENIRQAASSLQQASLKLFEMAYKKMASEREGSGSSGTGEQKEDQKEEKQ
# Chain of Slc1a2_IPI:IPI00230289.1 (mouse) (P43006 whole entry): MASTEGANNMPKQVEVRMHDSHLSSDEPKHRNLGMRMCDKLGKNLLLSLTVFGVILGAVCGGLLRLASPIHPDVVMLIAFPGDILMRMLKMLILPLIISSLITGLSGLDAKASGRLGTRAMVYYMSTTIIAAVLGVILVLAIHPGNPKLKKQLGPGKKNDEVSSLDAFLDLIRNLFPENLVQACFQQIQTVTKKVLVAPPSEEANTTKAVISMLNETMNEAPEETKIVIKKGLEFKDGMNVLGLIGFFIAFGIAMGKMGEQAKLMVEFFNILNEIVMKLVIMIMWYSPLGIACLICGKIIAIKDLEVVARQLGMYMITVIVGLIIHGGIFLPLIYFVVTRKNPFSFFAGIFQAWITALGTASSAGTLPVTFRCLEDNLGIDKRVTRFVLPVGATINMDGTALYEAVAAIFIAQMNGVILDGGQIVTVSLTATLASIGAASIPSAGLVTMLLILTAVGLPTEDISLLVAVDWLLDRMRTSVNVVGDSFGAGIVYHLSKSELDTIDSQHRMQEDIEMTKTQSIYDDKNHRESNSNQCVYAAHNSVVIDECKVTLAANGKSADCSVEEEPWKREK
# Chain of GST-Httex1-23Q (P08515 1-218, tags or fused parts left off): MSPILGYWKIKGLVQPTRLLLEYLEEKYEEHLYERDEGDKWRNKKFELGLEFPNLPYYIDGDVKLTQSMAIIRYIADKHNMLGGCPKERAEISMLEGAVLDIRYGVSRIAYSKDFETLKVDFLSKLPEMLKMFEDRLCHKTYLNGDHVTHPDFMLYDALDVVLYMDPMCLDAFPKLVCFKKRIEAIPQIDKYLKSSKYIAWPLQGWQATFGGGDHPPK
# Chain of Tomm20_IPI:IPI00120715.1 (mouse) (Q9DCC8 whole entry): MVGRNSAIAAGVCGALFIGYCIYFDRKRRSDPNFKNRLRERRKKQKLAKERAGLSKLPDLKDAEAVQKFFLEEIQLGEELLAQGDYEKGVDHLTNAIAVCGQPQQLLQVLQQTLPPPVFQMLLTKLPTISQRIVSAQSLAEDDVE
# Chain of Vsnl1_IPI:IPI00230418.5 (mouse) (P62761 2-191 limits assumed): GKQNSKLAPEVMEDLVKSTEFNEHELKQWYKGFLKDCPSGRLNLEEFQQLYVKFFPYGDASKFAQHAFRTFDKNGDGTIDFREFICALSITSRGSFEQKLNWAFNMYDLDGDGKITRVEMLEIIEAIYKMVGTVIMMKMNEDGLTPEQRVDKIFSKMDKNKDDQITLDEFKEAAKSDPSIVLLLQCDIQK
# Chain of Coq5_IPI:IPI00379695.2 (mouse) (Q9CXI0 50-327 limits assumed): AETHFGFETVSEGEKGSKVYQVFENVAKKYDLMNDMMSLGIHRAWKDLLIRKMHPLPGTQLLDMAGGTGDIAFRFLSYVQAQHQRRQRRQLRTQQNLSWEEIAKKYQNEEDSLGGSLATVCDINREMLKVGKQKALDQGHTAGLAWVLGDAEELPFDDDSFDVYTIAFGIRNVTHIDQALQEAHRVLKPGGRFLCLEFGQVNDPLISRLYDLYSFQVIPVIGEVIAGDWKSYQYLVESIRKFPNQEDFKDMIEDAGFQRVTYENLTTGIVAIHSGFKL
# Chain of Asrgl1_IPI:IPI00223875.1 (mouse) (Q8C0M9 whole entry): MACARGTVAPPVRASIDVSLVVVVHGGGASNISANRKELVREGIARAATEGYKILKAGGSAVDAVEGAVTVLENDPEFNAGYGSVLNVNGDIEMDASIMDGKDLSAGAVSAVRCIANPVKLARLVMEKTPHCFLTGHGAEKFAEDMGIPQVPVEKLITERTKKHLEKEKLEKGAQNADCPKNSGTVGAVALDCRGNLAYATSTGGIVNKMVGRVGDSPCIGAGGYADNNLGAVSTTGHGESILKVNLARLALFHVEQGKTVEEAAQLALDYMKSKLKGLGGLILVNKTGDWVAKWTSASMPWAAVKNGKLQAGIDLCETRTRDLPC
# Chain of Gnb3_IPI:IPI00116938.1 (mouse) (Q61011 whole entry): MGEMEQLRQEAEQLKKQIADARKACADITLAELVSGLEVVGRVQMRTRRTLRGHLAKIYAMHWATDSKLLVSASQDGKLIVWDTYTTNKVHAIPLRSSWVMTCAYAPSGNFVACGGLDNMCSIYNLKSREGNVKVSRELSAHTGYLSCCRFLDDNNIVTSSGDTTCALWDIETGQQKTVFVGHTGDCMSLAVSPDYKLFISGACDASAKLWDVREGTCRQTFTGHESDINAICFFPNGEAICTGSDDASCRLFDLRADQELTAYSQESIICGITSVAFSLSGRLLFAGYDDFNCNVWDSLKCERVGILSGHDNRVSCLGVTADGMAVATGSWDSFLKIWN
# Chain of Echs1_IPI:IPI00454049.4 (mouse) (Q8BH95 28-290 limits assumed): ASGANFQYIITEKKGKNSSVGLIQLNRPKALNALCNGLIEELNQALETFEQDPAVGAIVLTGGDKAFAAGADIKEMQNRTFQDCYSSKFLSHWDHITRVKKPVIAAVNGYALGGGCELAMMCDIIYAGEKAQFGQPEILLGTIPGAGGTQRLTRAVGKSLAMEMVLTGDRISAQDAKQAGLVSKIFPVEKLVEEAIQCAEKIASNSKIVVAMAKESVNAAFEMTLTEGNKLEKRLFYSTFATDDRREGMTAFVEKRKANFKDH
# Chain of Tim17a (endogenous, mouse forebrain mitochondria) (mouse) (Q9Z0V8 whole entry): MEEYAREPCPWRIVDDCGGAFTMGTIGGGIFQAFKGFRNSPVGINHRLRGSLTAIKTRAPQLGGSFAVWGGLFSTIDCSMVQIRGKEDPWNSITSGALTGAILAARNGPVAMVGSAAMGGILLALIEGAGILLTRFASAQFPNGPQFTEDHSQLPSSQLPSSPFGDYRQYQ
# Chain of GST-Httex1-97Q (P08515 1-218, tags or fused parts left off): as the sequence (P08515 1-218, tags or fused parts left off) above
# Chain of Iscu_IPI:IPI00110578.1 (mouse) (Q9D7P6 36-168 limits assumed): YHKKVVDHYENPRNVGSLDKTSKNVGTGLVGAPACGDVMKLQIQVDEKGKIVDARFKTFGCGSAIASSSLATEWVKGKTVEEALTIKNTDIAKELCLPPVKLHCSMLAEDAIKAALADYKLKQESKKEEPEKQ
# Chain of Sccpdh_IPI:IPI00153266.1 (mouse) (Q8R127 2-429 limits assumed): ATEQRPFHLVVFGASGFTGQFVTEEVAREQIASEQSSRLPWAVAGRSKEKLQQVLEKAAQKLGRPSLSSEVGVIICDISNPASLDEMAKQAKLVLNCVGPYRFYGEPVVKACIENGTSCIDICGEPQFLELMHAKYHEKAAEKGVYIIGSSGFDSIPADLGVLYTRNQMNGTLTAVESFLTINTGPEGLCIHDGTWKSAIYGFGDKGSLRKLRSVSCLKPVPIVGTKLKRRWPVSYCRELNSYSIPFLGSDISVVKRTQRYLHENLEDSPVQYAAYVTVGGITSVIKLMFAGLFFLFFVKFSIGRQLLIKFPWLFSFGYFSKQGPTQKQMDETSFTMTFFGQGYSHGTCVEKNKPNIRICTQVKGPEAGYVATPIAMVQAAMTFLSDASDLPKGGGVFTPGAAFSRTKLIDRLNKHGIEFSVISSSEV
# Chain of Gnao1_IPI:IPI00115546.4 (mouse) (P18872 2-354 limits assumed): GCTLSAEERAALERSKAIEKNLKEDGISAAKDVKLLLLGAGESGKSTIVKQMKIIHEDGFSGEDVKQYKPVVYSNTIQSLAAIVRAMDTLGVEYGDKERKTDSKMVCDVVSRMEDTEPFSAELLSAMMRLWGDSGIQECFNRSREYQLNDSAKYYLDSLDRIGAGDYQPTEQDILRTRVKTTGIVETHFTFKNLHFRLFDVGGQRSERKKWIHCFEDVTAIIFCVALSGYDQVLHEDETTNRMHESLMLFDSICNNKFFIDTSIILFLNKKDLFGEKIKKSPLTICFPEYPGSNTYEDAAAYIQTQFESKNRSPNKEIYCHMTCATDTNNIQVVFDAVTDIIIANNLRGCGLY
substance,measurement,setting,value
GST-Httex1-23Q (from UniProt P08515 1-218; P42858 1-88),No. of total peptides,[1],3 peptides
same,No. of unique peptides,[1],3 peptides
same,No. of total peptides,[2],1 peptides
same,No. of unique peptides,[2],1 peptides
same,No. of total peptides,[3],2 peptides
same,No. of unique peptides,[3],2 peptides
same,No. of total peptides,[4],1 peptides
same,No. of unique peptides,[4],1 peptides
same,No. of total peptides,[5],1 peptides
same,No. of unique peptides,[5],1 peptides
same,No. of total peptides,[6],1 peptides
same,No. of unique peptides,[6],1 peptides
same,No. of total peptides,[7],3 peptides
same,No. of unique peptides,[7],3 peptides
same,No. of total peptides,[8],1 peptides
same,No. of unique peptides,[8],1 peptides
same,No. of total peptides,[9],1 peptides
same,No. of unique peptides,[9],1 peptides
same,No. of total peptides,[10],1 peptides
same,No. of unique peptides,[10],1 peptides
GST-Httex1-97Q (from UniProt P08515 1-218; P42858 1-88),No. of total peptides,[11],1 peptides
same,No. of unique peptides,[11],1 peptides
same,No. of total peptides,[12],1 peptides
same,No. of unique peptides,[12],1 peptides
same,No. of total peptides,[1],4 peptides
same,No. of unique peptides,[1],4 peptides
same,No. of total peptides,[13],2 peptides
same,No. of unique peptides,[13],2 peptides
same,No. of total peptides,[2],6 peptides
same,No. of unique peptides,[2],5 peptides
same,No. of total peptides,[14],5 peptides
same,No. of unique peptides,[14],5 peptides
same,No. of total peptides,[3],5 peptides
same,No. of unique peptides,[3],3 peptides
same,No. of total peptides,[15],3 peptides
same,No. of unique peptides,[15],3 peptides
same,No. of total peptides,[16],1 peptides
same,No. of unique peptides,[16],1 peptides
same,No. of total peptides,[17],1 peptides
same,No. of unique peptides,[17],1 peptides
same,No. of total peptides,[4],1 peptides
same,No. of unique peptides,[4],1 peptides
same,No. of total peptides,[5],2 peptides
same,No. of unique peptides,[5],2 peptides
same,No. of total peptides,[18],2 peptides
same,No. of unique peptides,[18],2 peptides
same,No. of total peptides,[6],1 peptides
same,No. of unique peptides,[6],1 peptides
same,No. of total peptides,[19],1 peptides
same,No. of unique peptides,[19],1 peptides
same,No. of total peptides,[7],6 peptides
same,No. of unique peptides,[7],5 peptides
same,No. of total peptides,[8],1 peptides
same,No. of unique peptides,[8],1 peptides
same,No. of total peptides,[20],1 peptides
same,No. of unique peptides,[20],1 peptides
same,No. of total peptides,[9],1 peptides
same,No. of unique peptides,[9],1 peptides
same,No. of total peptides,[21],1 peptides
same,No. of unique peptides,[21],1 peptides
same,No. of total peptides,[10],2 peptides
same,No. of unique peptides,[10],2 peptides
